# From article PMC11869522, “Competitive displacement of lipoprotein lipase from heparan sulfate is orchestrated by a disordered acidic cluster in GPIHBP1” (Journal of Lipid Research, 2025)
# B1: GPIHBP1^Cluster1-neutral: GPIHBP1 mutant with all Glu/Asp replaced by Gln/Asn at residues 1–17 (protein)
# chain: QTQQQQQQQNQNHGPNNYDEEDEDEVEEEETNRLPGGGSRVLLRCYTCKSLPRDERCNLTQNCSHGQTCTTLIAHGNTESGLLTTHSTWCTDSCQPITKTVEGTQVTMTCCQSSLCNVPPWQSSRVQDPTG
# modifications: Tyr18 sulfation present in less than 40%; one bi-antennary N-linked glycosylation; left off: uPAR domain III, N-terminal, cleaved
# B2: GPIHBP1^Cluster2-neutral: GPIHBP1 mutant with all Glu/Asp replaced by Gln/Asn at residues 19–30 (protein)
# chain: QTQQEEEEEDEDHGPDDYNQQNQNQVQQQQTNRLPGGGSRVLLRCYTCKSLPRDERCNLTQNCSHGQTCTTLIAHGNTESGLLTTHSTWCTDSCQPITKTVEGTQVTMTCCQSSLCNVPPWQSSRVQDPTG
# modifications: Tyr18 sulfation absent; one bi-antennary N-linked glycosylation; left off: uPAR domain III, N-terminal, cleaved
# Tests used:
# [1] = test system: bLPL; assay: Protein stability by differential scanning fluorimetry (nano-DSF, turbidity); design: species or system bovine; conditions: 10 μM bLPL with 15 μM GPIHBP1 variant; 10 mM HEPES, 150 mM NaCl pH 7.4; 1°C/min, 15−95°C; back-reflection turbidity; triplicates
# Description: The thermostability of bLPL in the presence or absence of GPIHBP1 was measured by differential scanning fluorometry (nano-DSF) with a Prometheus Panta (Nanotemper Technologies) using a previously published method ([22]). In brief; 10 μM bLPL alone or in the presence of 15 μM GPIHBP1^1–131, 15 μM GPIHBP1^Cluster1-neutral, or 15 μM GPIHBP1^Cluster2-neutra1 were prepared in 10 mM HEPES, 150 mM NaCl (pH 7.4) and heated in capillaries with a ramping temperature of 1°C/min from 15−95°C. Turbidity was measured by assessing back-reflection and was used as a surrogate marker for thermal unfolding ([20]). All samples were measured in triplicates.
# Next, we probed if recombinant GPIHBP1^1–131 with defined neutralizations of charge-clusters 1 or 2 had distinct impacts on their ability to protect bLPL from ANGPTL4-mediated inactivation. […]
# Fig. 4 GPIHBP1 clusters 1 and 2 have distinct impacts on LPL stability and inactivation by ANGPTL4. […] LPL activity was measured by the release of free fatty acids from Intralipid using the NEFA 2 assay. […] B: Thermostability of 10 μM bLPL in the presence of 15 μM of the different GPIHBP1 charge variants using Tturbidity measured by Prometheus Panta™ as a surrogate marker for unfolding ([20]).
# [2] = test system: bLPL; assay: Lipase activity assay, protection against ANGPTL4-catalyzed LPL inactivation; format: biochemical, bovine; conditions: 30 nM bLPL, 30 nM ANGPTL4, 300 nM GPIHBP1 variant, room temperature up to 60 min; Intralipid, NEFA; triplicates
# [3] = test system: mouse LPL; assay: Native PAGE binding to mouse LPL; conditions: 4 µM LPL with 18 µM GPIHBP1, 30 min on ice; Coomassie staining
# Description: Distinct impacts of disordered acidic clusters in GPIHBP1
# To confirm interactions between puri fi ed human GPIHBP11–131, G P IH B P 1 Cluster1-neutral, or GPIHBP1 Cluster2-neutral with human, mouse, and bovine LPL, these protein pairs were incubated for 30 min on ice (4 µM LPL with 18 µM GPIHBP1) before they were analyzed by native PAGE. As th ese concentrations were well above t he K D of 0.2 nM for the wildtype LPL•GPIHBP1 interaction, LPL is saturated with GPIHBP1 in these experiments (1). […]
# spect r a for the purified GPIHBP1 variants wer e r ecor ded at 25°C in Helman cuvettes (path- length of 1 mm) with a scan rate of 50 nm/ min c ove r i ng the range of 190- 250 nm, averaging three scans for each protein. Spectra for the pr ote i ns were compared after converting to molar ellipticity using the following equation, […] where, Mw is the molecular weight of the protein, c is the protein concentration in g/l, l is the pat h-length of the cuvette, Nr number of amino acid residues in the protein.
# Figure S1 : Binding of GPIHBP1 charge mutants to LPL as assessed by Native PAGE. The electrophoretic mobility of GPIHBP1 variants alone or in presence of purified human LPL ( A), b ovine LPL (B), and murine LPL (C) was assessed by native PAGE followed by Coomassie blue staining. […]
Molecule,Tturbidity (thermal unfolding and aggregation of bLPL) [1] [°C],protection of bLPL from ANGPTL4-mediated inactivation (time-dependent decay of LPL activity) [2],binding to mLPL as judged by native PAGE [3]
B1,50.4 ± 0.2,greater efficacy than GPIHBP1^Cluster2-neutral,bound
B2,48.8 ± 0.1,–,bound
